Paper PMC9184524, “Structural Basis for pH-gating of the K^+ channel TWIK1 at the selectivity filter” (Nature Communications, 2022)

Target: the molecule itself
Assay: cryo-EM structure; TWIK1 in MSP1D1 nanodiscs (2:1:1 DOPE:POPS:POPC), 20 mM HEPES pH 7.4, 150 mM KCl, 1 mM EDTA; C2 symmetry imposed; homodimer

B1: Rattus norvegicus TWIK1 (natural protein)
chain: MLQSLAGSSCVRLVERHRSAWCFGFLVLGYLLYLVFGAVVFSSVELPYEDLLRQELRKLKRRFLEEHECLSEPQLEQFLGRVLEASNYGVSVLSNASGNWNWDFTSALFFASTVLSTTGYGHTVPLSDGGKAFCIIYSVIGIPFTLLFLTAVVQRVTVHVTRRPVLYFHIRWGFSKQVVAIVHAVLLGFVTVSCFFFIPAAVFSVLEDDWNFLESFYFCFISLSTIGLGDYVPGEGYNQKFRELYKIGITCYLLLGLIAMLVVLETFCELHELKKFRKMFYVKKDKDEDQVHIMEHDQLSFSSITEQAAGLKEEQKQNEPFVASQSPPYEDGSANHSNSLEVLFQ
notes: TWIK1 (K2P1.1, KCNK1), Rattus norvegicus, Uniprot Q9Z2T2, full length; gene codon-optimized for Pichia pastoris; W20-Y281 modeled at pH 5.5, G24-F280 at pH 7.4; linker SNS and the part of the human rhinovirus 3C site (LEVLFQ/GP) left on the C-terminus after cleavage of EGFP-His10; cleaved on the resin with PPX before SEC and nanodisc reconstitution (MSP1D1 at pH 7.4, MSPE3D1 at pH 5.5); also …
stoichiometry N: 2
